Target: the molecule itself
Experiment: non-reducing SDS-PAGE

B1: Thioredoxin-His-tagged OsbZIP47 full-length protein (natural protein, rice (Oryza sativa), UniProt Q5Z6N9 1-385, looked up)
chain: MAAHQGMAAATAADRFCLPRMAAAAAAASQVENWGDSGVIVSSPFTDDTSTDLDDSADKHHLHALVGGGDGGDDAGEQRGADSSAVSKERRGDQKMQRRLAQNREAARKSRMRKKAYIQQLESSRSKLMHLEQELQRARQQGIFIATGGSGDHGHSIGGNGTLAFDLEYARWLDEHQRHINDLRVALNAQMSDDELCELVDAVMMHYDQVFRLKSFATKSDVFHVLSGMWMSPAERFFMWLGGFRSSELLKVLASHLEPLTDQQLMGICNLQQSSQQAEDALSQGMEALQQTLGDTLVSAAATVVSGGGGADNVTNYMGQMAIAMAKLTTLENFLRQADLLRHQTLQQMHRILTTRQAARALLVISDYFSRLRALSSLWLARPRD
B1: binds.
